These are literature values, as cited in US7931890B2, “Targeted combination immunotherapy of cancer and infectious diseases” (Immunomedics, Inc., priority 1996, dated 2011).

Where only a bound is given, the exact number is not on record here.

The conditions of series [1]: Rosebrough 1993; cited from earlier work.
Another series has as its target streptavidin (Streptomyces avidinii, UniProt P22629). To be noted: streptavidin-biotin system; Rosebrough 1993; cited from earlier work.
The next series has as its target T1, CEA (Homo sapiens, UniProt P06731).
T1 sequence (P06731 35-676): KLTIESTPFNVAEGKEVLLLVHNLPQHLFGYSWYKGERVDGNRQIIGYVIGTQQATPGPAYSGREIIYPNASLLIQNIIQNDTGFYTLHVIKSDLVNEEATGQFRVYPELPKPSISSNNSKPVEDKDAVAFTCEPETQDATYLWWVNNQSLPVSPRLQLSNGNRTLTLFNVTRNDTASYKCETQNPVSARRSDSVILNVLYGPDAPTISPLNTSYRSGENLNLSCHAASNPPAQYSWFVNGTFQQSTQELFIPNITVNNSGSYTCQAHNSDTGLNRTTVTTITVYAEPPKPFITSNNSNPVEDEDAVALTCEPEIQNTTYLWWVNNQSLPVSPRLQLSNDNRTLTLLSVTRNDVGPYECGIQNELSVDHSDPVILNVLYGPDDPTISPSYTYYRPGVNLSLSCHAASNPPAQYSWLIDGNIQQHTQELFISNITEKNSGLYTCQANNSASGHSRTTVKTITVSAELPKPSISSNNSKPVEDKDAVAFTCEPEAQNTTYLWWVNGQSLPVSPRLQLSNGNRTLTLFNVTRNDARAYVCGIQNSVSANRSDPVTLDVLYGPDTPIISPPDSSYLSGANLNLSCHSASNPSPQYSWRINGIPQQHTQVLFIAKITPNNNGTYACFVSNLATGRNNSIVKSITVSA
To be noted: Hansen et al. 1993; cited from earlier work.

Chain of streptavidin (P22629 25-183): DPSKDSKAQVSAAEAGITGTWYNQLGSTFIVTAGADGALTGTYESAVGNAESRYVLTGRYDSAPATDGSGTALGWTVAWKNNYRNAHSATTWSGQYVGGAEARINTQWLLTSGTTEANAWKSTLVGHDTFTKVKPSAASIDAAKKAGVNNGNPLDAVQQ

On to “avidin: biotin-binding protein found in egg whites”, for which the pI in series [1] is > 10.

For `O=C(O)CCCC[C@@H]1SC[C@@H]2NC(=O)N[C@@H]21` [biotin], at streptavidin, the Ka is listed as 10^15 M^−1.

For the compound MN-14: second generation CEA-antibody, the “affinity for CEA relative to first generation NP-4” value with CEA is reported as “ten times more affinity”.
